Results published in PMC3380618.

Columns and labels:
[1] = biological target: EcoRV K119A (UniProt P04390 2-245, K119A); experiment: filter binding
[2] = biological target: EcoRV endonuclease wild type (UniProt P04390 2-245); experiment: FRET

B1: PMe-2 racemic (dsDNA)
DNA 1: TGTGTTGTAGGATATCCTACAGGT
DNA 2: ACCTGTAGGATATCCTACAACACA
modifications: racemic Rp,Sp methylphosphonate at P-2, symmetric in both strands
Kd [1]: 1.1 pM

B2: FRET 14 bp GATATC (dsDNA)
DNA 1: AGAAGATATCTTGA
DNA 2: TCAAGATATCTTCT
binding result [2]: binds
